According to patent US20220144956A1 (published 2022):
Where a chain is given by its changes, count along the chain named.

B1: XENP36169 H1.186 L1 (antibody, V domains shown)
VH: QLQVQESGPGLVKPSETLSLTCTVSGGSISESYFSWGWIRQPPGKGLEWIGSFYYGGKTYYNPSLKSRATISIDTSKNQFSLKLSSVTAADTAVYYCARGPTTIRGVIDSWGQGTLVTVSS
VL: EIVLTQSPATLSLSPGERATLSCRASQSVRSYLAWYQQKPGQAPRLLIYDASNRATGIPARFSGSGSGTDFTLTISSLEPEDFAVYYCQQRSNWPPTFGQGTKVEIK
B2: XENP36183 H1.200 L1 (antibody, V domains shown)
VH: B1 VH with E31N, S32A, T103M
VL: B1 VL
B3: XENP35107 H1.36 L1 (antibody, V domains shown)
VH: B1 VH with E31N, G37S, G57E, N78S, A98P, T103M
VL: B1 VL
B4: XENP36184 H1.201 L1 (antibody, V domains shown)
VH: B1 VH with E31N, S32A, T103L
VL: B1 VL
B5: XENP36164 H1.181 L1 (antibody, V domains shown)
VH: B1 VH with E31N, T103M
VL: B1 VL
B6: XENP36185 H1.202 L1 (antibody, V domains shown)
VH: B1 VH with E31N, S32A
VL: B1 VL
B7: XENP36176 H1.193 L1 (antibody, V domains shown)
VH: B1 VH with E31T, T103L
VL: B1 VL
B8: XENP35104 H1.29 L1 (antibody, V domains shown)
VH: B1 VH with E31N, S35T, G57E, N78S, A98P, T103M
VL: B1 VL
B9: XENP36170 H1.187 L1 (antibody, V domains shown)
VH: B1 VH with T103V
VL: B1 VL
B10: XENP36175 H1.192 L1 (antibody, V domains shown)
VH: B1 VH with E31T, T103M
VL: B1 VL
B11: XENP36177 H1.194 L1 (antibody, V domains shown)
VH: B1 VH with E31T
VL: B1 VL
B12: XENP36179 H1.196 L1 (antibody, V domains shown)
VH: B1 VH with E31Q, T103M
VL: B1 VL
B13: XENP36167 H1.184 L1 (antibody, V domains shown)
VH: B1 VH with T103M
VL: B1 VL
B14: H1.106 L1 XENP34562 (antibody, V domains shown)
VH: B1 VH with E31N, G57E, N78S, A98P, T103M, L116M
VL: B1 VL
B15: H1.87 L1 XENP34543 (antibody, V domains shown)
VH: B1 VH with E31N, G57E, N78S, A98P, T103Q
VL: B1 VL
B16: H1.100 L1 XENP34556 (antibody, V domains shown)
VH: B1 VH with E31N, G57E, N78S, A98P, T103M, I108F
VL: B1 VL
B17: H1.98 L1 XENP34554 (antibody, V domains shown)
VH: B1 VH with E31N, G57E, N78S, A98P, T103M, V107A
VL: B1 VL
B18: H1.102 L1 XENP34558 (antibody, V domains shown)
VH: B1 VH with E31N, G57E, N78S, A98P, T103M, S110H
VL: B1 VL
B19: H1 L1.2 XENP34565 (antibody, V domains shown)
VH: B1 VH with E31N, G57E, N78S, A98P, T103M
VL: B1 VL with A9G
B20: H1.95 L1 XENP34551 (antibody, V domains shown)
VH: B1 VH with E31N, G57E, N78S, A98P, T103M, R105K
VL: B1 VL
B21: H1 L1.7 XENP34570 (antibody, V domains shown)
VH: B1 VH with E31N, G57E, N78S, A98P, T103M
VL: B1 VL with S28G
B22: H1.99 L1 XENP34555 (antibody, V domains shown)
VH: B1 VH with E31N, G57E, N78S, A98P, T103M, V107S
VL: B1 VL
B23: H1.85 L1 XENP34541 (antibody, V domains shown)
VH: B1 VH with E31N, G57E, N78S, A98P, T103S
VL: B1 VL
B24: H1 L1.3 XENP34566 (antibody, V domains shown)
VH: B1 VH with E31N, G57E, N78S, A98P, T103M
VL: B1 VL with A9P
B25: H1 L1.6 XENP34569 (antibody, V domains shown)
VH: B1 VH with E31N, G57E, N78S, A98P, T103M
VL: B1 VL with R24G
B26: H1 L1.1 XENP34564 (antibody, V domains shown)
VH: B1 VH with E31N, G57E, N78S, A98P, T103M
VL: B1 VL with L4M
B27: H1.91 L1 XENP34547 (antibody, V domains shown)
VH: B1 VH with E31N, G57E, N78S, A98P, T103M, I104V
VL: B1 VL
B28: H1.103 L1 XENP34559 (antibody, V domains shown)
VH: B1 VH with E31N, G57E, N78S, A98P, T103M, S110L
VL: B1 VL
B29: H1.90 L1 XENP34546 (antibody, V domains shown)
VH: B1 VH with E31N, G57E, N78S, A98P, T103M, I104N
VL: B1 VL
B30: H1.84 L1 XENP34540 (antibody, V domains shown)
VH: B1 VH with E31N, G57E, N78S, A98P, T103E
VL: B1 VL
B31: H1 L1.4 XENP34567 (antibody, V domains shown)
VH: B1 VH with E31N, G57E, N78S, A98P, T103M
VL: B1 VL with L13V
B32: H1 L1.5 XENP34568 (antibody, V domains shown)
VH: B1 VH with E31N, G57E, N78S, A98P, T103M
VL: B1 VL with A19V
B33: H1.101 L1 XENP34557 (antibody, V domains shown)
VH: B1 VH with E31N, G57E, N78S, A98P, T103M, I108M
VL: B1 VL
B34: H1.104 L1 XENP34560 (antibody, V domains shown)
VH: B1 VH with E31N, G57E, N78S, A98P, T103M, S110V
VL: B1 VL
B35: H1.107 L1 XENP34563 (antibody, V domains shown)
VH: B1 VH with E31N, G57E, N78S, A98P, T103M, L116T
VL: B1 VL

Target: T1, human TGFßRII (antigen of the Octet experiments) (human, UniProt P37173 23-166)
T1 sequence (P37173 23-166): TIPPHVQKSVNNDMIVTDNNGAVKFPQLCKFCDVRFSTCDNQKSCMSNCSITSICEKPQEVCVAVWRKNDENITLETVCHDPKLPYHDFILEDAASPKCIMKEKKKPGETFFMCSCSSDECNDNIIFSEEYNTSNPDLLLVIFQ
Assay: not given

Kd [nM] | Binder
10.1 | B1
3.02 | B2
2.89 | B3
5.27 | B4
2.29 | B5
7.4 | B6
7.15 | B7
2.43 | B8
9.08 | B9
4.38 | B10
9.77 | B11
3.69 | B12
4.34 | B13

Target: T1, human TGFßRII (antigen of the Octet …)
Assay: BLI (Octet)

Kd [nM] | Binder
0.624 | B14
1.58 | B15
0.898 | B16
0.761 | B17
0.139 | B18
0.361 | B19
2.34 | B20
0.315 | B21
0.431 | B22
4 | B23
0.547 | B24
2.24 | B25
0.569 | B26
0.512 | B27
0.16 | B28
0.0747 | B29
4.16 | B30
0.601 | B31
1.3 | B32
0.492 | B33
0.601 | B34
0.109 | B35
